From the nanobody polyreactivity screen of Harvey et al. (2022)

Experiment: yeast display, Sf9 membrane polyspecificity reagent, FACS + sequencing; frameworks hold sequencing errors
Procedure, shortened: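 Polyreactivity labels are assigned by the sorting gate from which each nanobody was recovered. The gates were low and high (top ~1%), set on anti-HA fluorescence for expression and streptavidin fluorescence for reagent binding. Before sorting, galactose-induced (36–48 hours) yeast display cells were stained for 1 hour at 4 °C with 10% biotinylated, detergent-solubilized Sf9 membrane reagent.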

Sequence | polyreactivity (PSR sort gate)
QVQLVESGGGLVQAGGSLRLSCAASGFIFGNNDMGWNRQAPGKERELVAGITWSGSSTYYADSVKGRFTISRDNAKNTVYLQMNSLKPEDTAVYYCARDGNDGYEYWGQGTQVTVSS | high polyreactivity
QVQLVESGGGLVQAGGSLRLSCAASGFIFGPNAMGWYRQAPAKERELVAAISYSGGRTYYADSVKGRFTISRDNAKNTVYLQMNSLKPEDTSVYYCAADAYWYGRSYYWGQGTQVTVSS | high polyreactivity
QVQLVESGGGLVQAGGSLRLSCAASGFIFGPNAMGWYRQAPGKERELVAAIRWSSGTTYYADSVKGRFTISRDNAKNTVSLQMNSLKPEDTAVYYCAAGPYVSYYWGQGTQVTVSS | low polyreactivity
QVQLVESGGGLVQAGGSLRLSCAASGFIFGQYAMGWYRQAPGKERELVAAISWSGGRTNYADSVKGRFTISRDNAKNTVYLQMNSLKPEDTAVYYCAARKGKYPQYTYGYWGQGTQVTVSS | high polyreactivity
QVQLVESGGGLVQAGGSLRLSCAASGFIFGRKSMGWYRQAPGKERELVAAISSGDSTYYADSVKGRFTISRDNAKNTVYLQMNSLKPEDTAVYYCAARLVRQQSRPKGGYWGQGTQVTVSS | high polyreactivity
QVQLVESGGGLVQAGGSLRLSCAASGFIFGRNAMGWYRQAPGKEREFVAAITRIGGNTYYADSVKGRFTISRDNAKNTVYLQMNSLKPEDTAVYYCAARLSYFHAYGFYWGQGTQVTVSS | high polyreactivity
QVQLVESGGGLVQAGGSLRLSCAASGFIFGRYAMGWYRQAPGKERELVARITGIGTRTYYADSVKGRFTISRDNAKNTVYLQMNSLKPEDTAVYYCAVRPFYWGQGTQVTVSS | high polyreactivity
QVQLVESGGGLVQAGGSLRLSCAASGFIFGRYTMGWYRQAPGKERELVAAISGSDVSTYYADSVKGRFTISRDNAKITVYLQMNRLKPEDTAVYYCAADAPWAYYEYDYWGQGTQVTVSS | low polyreactivity
QVQLVESGGGLVQAGGSLRLSCAASGFIFGRYTMGWYRQAPGKERELVAAISGSDVSTYYADSVKGRFTISRDNAKNTVYLQMNSLKPEDTAVYYCAADAPWAYYEYDYWGQGTQVTVSS | low polyreactivity
QVQLVESGGGLVQAGGSLRLSCAASGFIFGSYAMGWYRQAPGKERELVAAISWSGASTYYADSVKGRFTISRDKAKNTVYLQMNSLKPEDTAVYYCAAVSRYGWYDYWGQGTQVTVSS | high polyreactivity
QVQLVESGGGLVQAGGSLRLSCAASGFIFGTYAMGWYRQAPGKEREFVAAITTSGSSTRYADSVKGRFTISRDNAKNTVYLQMNSLKPEDTAVYYCAARNRTFFQPTYYYWGQGTQVTVSS | high polyreactivity
QVQLVESGGGLVQAGGSLRLSCAASGFIFGTYVMGWYRQAPGKERELVAAISESGGRTYYADSVKGRFTISRDNAKNTVYLQMNSLKPEDTAVYYCNAPHHRYDWGQGTQVTVSS | high polyreactivity
QVQLVESGGGLVQAGGSLRLSCAASGFIFGVNTMGWYRQAPGKERELVAAINSGGSTNYADSVKGRFTISRDNAKNTVYLLMNSLKPEDTAVYYCAVRHFWYRWGWYNYWGQGTEVTVSS | high polyreactivity
QVQLVESGGGLVQAGGSLRLSCAASGFIFGVYAKGWYRQAPGKERELVAAISGSGVRTYYADSVKGRFTISRDNAKNTLYLQMNSLKPEDTAVYYCAARRGFVRPYNYWGQGTQVTVSS | high polyreactivity
QVQLVESGGGLVQAGGSLRLSCAASGFIFGVYAMGWYRQAPGKERELVAAITSTGSTYYADSVKGRFTISRDNAKNTVYLQMNSLKPEDTAVYYCATYYWLGLSLYDYWGQGTQVTVSS | low polyreactivity
QVQLVESGGGLVQAGGSLRLSCAASGFIFGVYAMRWYRQAPGKERELVAAISYRTGTTYYADSVKGRFTISRDNAKNTVYLQMNSLKTEDTAVYYCNAAVRGVGELDYWGQGTQVTVSS | high polyreactivity
QVQLVESGGGLVQAGGSLRLSCAASGFIFGVYDMGWSRQAPGKERELVAAIDSVGSTYYADSVKGRFTISRDNAYNTVYLQMNSLKPEDTAVYYCAKDGSYQAYGYWGQGTQVTVSS | low polyreactivity
QVQLVESGGGLVQAGGSLRLSCAASGFIFGWNAMGWSRQAPGKEREFVAAISWSGGSTYYADSVKGRFTISRDNAKNTVYLQMNSLKPEDTAVYYCAREYHGDSRRYDYWGQGTQVTVSS | high polyreactivity
QVQLVESGGGLVQAGGSLRLSCAASGFIFGYNAMGWYRQAPGKERELVAAISSGGSTYYADSVKGRFTISRDNAKNTVYLQMKSLKPEDTAVYYCAVELGYPIQSYALWWDFEYWGQGTQVTVSS | low polyreactivity
QVQLVESGGGLVQAGGSLRLSCAASGFIFGYNAMGWYRQAPGKERELVAAISTRGGSTYYADSVKGRFTISRDNAKNTVYLQMNSLKPEDTAVYYCNKVTRVPFDSWGQGTQVTVSS | high polyreactivity
QVQLVESGGGLVQAGGSLRLSCAASGFIFGYNAMGWYRQAPGKESEFVAAISSSGASKYYADSVKGRFTISRDNAKNTVYLQMNSLKPEDTAVYYCAARYSWARYASTMGYWGQGTQVTVSS | high polyreactivity
QVQLVESGGGLVQAGGSLRLSCAASGFIFGYNDMGWSRQAPGKERELVAAINSGGSTYYADSVKGRFTISRDNAKNTVYLQMNSLKPDDTAVYYCAADYGYFEFDYWGQGTQVTVSS | low polyreactivity

Sequence | polyreactivity (PSR sort gate)
QVQLVESGGGLVQAGGSLRLSCAASGFIFGYNVMGWYRQAPGKERELVAAISSRGSSTYYADSVKGRFTISRDDVKNTVYLQMNSLKPEDTAVYYCAAYSSYNSWVSRRYGHDYWGQGTQVTVSS | high polyreactivity
QVQLVESGGGLVQAGGSLRLSCAASGFIFGYYAMGWYRQAPGKERELVAAINKNGGSTYYADSVKGRFTISRDNAKNTVYLQMNSLKPEDTAVYYCAARARGYAWTYDYWGQGTQVTVSS | high polyreactivity
QVQLVESGGGLVQAGGSLRLSCAASGFIFGYYAMGWYRQAPGKERELVAAISRGGITYYADSVKGRFTISRDNAKNTVYLQMNSLKPEDTAVYYCAAPNRYSVPMYYWGQGTQVTVSS | low polyreactivity
QVQLVESGGGLVQAGGSLRLSCAASGFIFGYYAMGWYRQAPGKERELVAAITRSGGSTRYADSVKGRFTISRDNANNNVYLQMNSLKPEDSAVYYCATRDGTHGYWGQGTQVTASS | high polyreactivity
QVQLVESGGGLVQAGGSLRLSCAASGFIFGYYAMGWYRQAPGKERELVAAITRSGGSTRYADSVKGRFTLSRDNAKNTVYLQMNSLKPEDTAVYYCTAYAPRQLYGYDYWGQGTQVTVSS | high polyreactivity
QVQLVESGGGLVQAGGSLRLSCAASGFIFGYYAMGWYRQAPGKERELVAPIKYNDDSTYYADSVKARFTISRDNAKNTVYLQMNSLKPEDTAVYYCAASRFWPGNSYYYRYYYWGQGTQVTVSS | low polyreactivity
QVQLVESGGGLVQAGGSLRLSCAASGFIFHDNAMGWYRQAPGKERELVAAISRSGGRTYYADSVKGRFTISRDNAKNTVYLQMNSLKPEDTAVYYCAAVPPPGGLDYWGQGTQVTVSS | high polyreactivity
QVQLVESGGGLVQAGGSLRLSCAASGFIFHGYTMGWYRQAPGKEMDMVARISFTGGSTYYADSVKGRFTISRDNAKNTVYLQMNSLKPEDTAVYYCAATYSSYWARYYYWGQGTQVTVSS | high polyreactivity
QVQLVESGGGLVQAGGSLRLSCAASGFIFHHYAMGWYRPAPGKERELVAAISKSGGSTYYADSVKGRFTISRDNAKNTVYLQMNSLKPEDTAVYYCAAYKRSGLKYGHWGQGTQVTVSS | high polyreactivity
QVQLVESGGGLVQAGGSLRLSCAASGFIFHKYFMGWYTQAPGKERELVAAISRSGASTYYADSVKGRFTISRDNAKNTVYLQMNSLKPEDTAVYYCAKDYQTYSGSSDFDYWGQGTQVTVSS | high polyreactivity
QVQLVESGGGLVQAGGSLRLSCAASGFIFHNYAMGWYRQAPGKESELVAVITLRGGSTYYADSVKGRCTISRDNAKNTVYLQMNSLKPEDTAVYYCATGNSKGRRTVRYGYWGQGTQVTVSS | high polyreactivity
QVQLVESGGGLVQAGGSLRLSCAASGFIFHQNAMGWYRQAPGKERELVAAITRSGTSTYYADSVKGRFTISRDNAKNTVYLQMNSLKPEDTAVYYCAACLPYGYGYDYWGQGTEVTVSS | low polyreactivity
QVQLVESGGGLVQAGGSLRLSCAASGFIFHQNAMGWYRQAPGKERELVAAITRSGTSTYYADSVKGRFTISRDYAKISVYLQMNSLKPVDTAVFYCANDPVRVGRFGYEYWGKGTQVTVSS | low polyreactivity
QVQLVESGGGLVQAGGSLRLSCAASGFIFHYNAMGWYRQAPGKERELVAAITSGDSTDYADSVKGRFTISRDNAKNTVYLQMNSLKPEDTAVYYCAAYHREGRRDDYWGQGTQVTVSS | low polyreactivity
QVQLVESGGGLVQAGGSLRLSCAASGFIFIANAMGWYRQAPGKERELVAAISDGGSTYYADSVKGRFTISRDNAKNTVYLQMNSLKPEDTGVYYCAKDVTWAGHYDYWGQGTQVTVSS | low polyreactivity
QVQLVESGGGLVQAGGSLRLSCAASGFIFIGYAMGWYRHAPGKERELVAAISWSGGSTYYADSVKGRFTISRDNAKNTVYLQMNSLKPEDTAVYYCNAVLYRFAYNYWGQGTQVTVSS | low polyreactivity
QVQLVESGGGLVQAGGSLRLSCAASGFIFIKYAMGWYRQAPGKERELVAAISSSGGSTYYADSVKGRFTISRDNAKNTVYLQMNSLKPEDTAVYYCAARGTWSRYGYWGQGTQVTVSS | high polyreactivity
QVQLVESGGGLVQAGGSLRLSCAASGFIFIRYAMGWYRQAPGKERELVAAISASGVRTYYADSVKGRFTISRDNAKNTVYLQMNSLKPEDTAVYYCAVCSAWVYGIGRYYWGQGTQVTVSS | high polyreactivity
QVQLVESGGGLVQAGGSLRLSCAASGFIFIRYAMGWYRQAPGKERELVAAISPSGGSTYYADSVKGRFTISRDNAKNTVYLQMNSLKPEDTAVYYCAREWRTYYYFWDHYYIYDYWGQGTQVTVSS | high polyreactivity
QVQLVESGGGLVQAGGSLRLSCAASGFIFISYMGCDRQAPGKERELVAAISWSGTRTYYADSVKGRFTISRDNAKNTVYLQMNSLKPEDTAVYYCAARKYYDRYFYWGQGTQVTVSS | low polyreactivity
QVQLVESGGGLVQAGGSLRLSCAASGFIFIYNAMGWYRQAPGKEREMVAAITGSDGGTFYADSVKGRFTISRDNAKNTVYLQLNSLKPEDTAVYYCNADNGSRQSRDGYESWGQGTQVTVSS | low polyreactivity
